One substance from patent US9415012B2, “Sustained-release composition containing peptides as active ingredient” (IPSEN PHARMA S.A.S., priority 2011, dated 2016) can be followed below.

The nature of the data set: IE-HPLC analysis of rhGH deamidation before/after spray-drying. It is filed as physicochemical. The conditions noted are these: 130° C. Here is the method: Recombinant human growth hormone in sodium carbonate buffer was dissolved in water. Sodium hyaluronate was present in the composition at a concentration of 2 mg/mL and rhGH at a concentration of 1 mg/mL. The weight ratio protein/sodium hyaluronate was equal to 0.5.
The composition was then spray dried with an inlet temperature of 130° C.
An ion-exchange high performance liquid chromatography (IE-HPLC) analysis was performed to evaluate the […] of rhGH and a size-exclusion chromatography high performance liquid chromatography (SEC-HPLC) analysis was performed to evaluate the aggregation of this protein.

Turning to rhGH: recombinant human growth hormone, the “Stability in the spray-drying process” value was “degraded”.
